Source: patent publication US20240376151A1, “STAPLED PEPTIDES AND METHODS THEREOF” (FOG PHARMACEUTICALS, INC., priority 2022, published 2024)
Numbered stars: 1 amine (or outer) side, 2 acyl side, 3 side chain; on linkers, the order of the positions; unused ones are H or OH. Bridge positions count the residues as written; N and C are the ends. Ends that are not written are not given here. Phenylene(1,4-NHCOCH2)2 = O=C(C[*:1])Nc1ccc(NC(=O)C[*:2])cc1

Legend:
[1] = target: T1, CHIP (Homo sapiens, UniProt Q9UNE7); assay: Naive Library Presenter Screening (phage, NGS), CHIP; type: binding; conditions: CHIP clusters (C83, C84); for interaction data, BLANK: Blank = Media only; for interaction data at Target Concentration 10: target concentration 10 nM; for interaction data at Target Concentration 30: target concentration 30 nM; for interaction data at Target Concentration 100: target concentration 100 nM; for interaction data at Target Concentration 300: target concentration 300 nM; for interaction data at Target Concentration 1000: target concentration 1000 nM
T1 construct: N-term truncated CHIP (also known as STUB1, Uniprot ID: Q9UNE7, residues 23-303); made in house; host or cells: E. coli BL21 CodonPlus
T1 sequence (Q9UNE7 23-303): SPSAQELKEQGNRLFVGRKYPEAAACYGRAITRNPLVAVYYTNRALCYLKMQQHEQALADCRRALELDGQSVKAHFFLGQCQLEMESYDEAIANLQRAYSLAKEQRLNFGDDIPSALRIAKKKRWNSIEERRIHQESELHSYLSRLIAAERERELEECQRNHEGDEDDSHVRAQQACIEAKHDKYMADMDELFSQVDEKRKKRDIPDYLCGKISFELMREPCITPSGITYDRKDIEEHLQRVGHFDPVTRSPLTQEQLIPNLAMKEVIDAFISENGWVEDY
Description: To conduct phage library screening, previously described procedures were utilized in accordance with the present disclosure.
Next-generation sequencing was performed as described in accordance with the present disclosure.
Hit ID and Clustering is performed according to a described procedure in accordance with the present disclosure.

[2] = target: T2, RNF31 UBA domain (Homo sapiens, UniProt Q96EP0); assay: Phage Library Screening with NGS, RNF31 UBA domain; type: binding; conditions: for Phage library screen NGS readout, Target Concentration 10 / Phage library screen NGS readout, Target Concentration 30 / Phage library screen NGS readout, Target Concentration 100 / Phage library screen NGS readout, Target Concentration 300 / Phage library screen NGS readout, Target Concentration 1000: RNF31 UBA domain cluster C46; for Phage library screen NGS readout, BLANK: cluster C46; for phage screen NGS read-out at Target Concentration 10 / phage screen NGS read-out at Target Concentration 30 / phage screen NGS read-out at Target Concentration 100 / phage screen NGS read-out at Target Concentration 300: no competitor
T2 construct: RNF31 UBA domain protein (residues 480-639) with N-terminal Thioredoxin-TEV-6×his-yBBr-3C tags; Thioredoxin (N, cleaved yes); made in house; host or cells: E. coli BL21 (DE3) pLysS
T2 sequence (Q96EP0 480-639): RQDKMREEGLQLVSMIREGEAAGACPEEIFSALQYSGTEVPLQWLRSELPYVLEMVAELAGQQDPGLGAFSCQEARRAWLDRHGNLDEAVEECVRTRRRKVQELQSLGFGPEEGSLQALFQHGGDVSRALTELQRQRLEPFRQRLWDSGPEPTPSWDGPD

[3] = target concentration 1000, first column
[4] = target concentration 1000, second column

“DPAELFCTEAADICMVD (linker 7-14 via Phenylene(1,4-NHCOCH2)2 (inferred))” was tested, and the “interaction data, BLANK” value ([1]; first column) was 0, the “interaction data, BLANK” value ([1]; second column) was 0 and the “interaction data at Target Concentration 10” value [1] was 0. For the same sequence, the “interaction data at Target Concentration 30” value [1] was 0, the “interaction data at Target Concentration 100” value [1] was 0 and the “interaction data at Target Concentration 300” value [1] was 18. For the same sequence, the “interaction data at Target Concentration 1000” value ([1]; first column) was 13 and the “interaction data at Target Concentration 1000” value ([1]; second column) was 22.
For “DPAETFCWDAADICMVD (linker 7-14 via Phenylene(1,4-NHCOCH2)2 (inferred))”, the “interaction data, BLANK” value ([1]; first column) was 0, the “interaction data, BLANK” value ([1]; second column) was 0 and the “interaction data at Target Concentration 10” value [1] was 0. The “interaction data at Target Concentration 30” value [1] was 0, the “interaction data at Target Concentration 100” value [1] was 1 and the “interaction data at Target Concentration 300” value [1] was 17. For the same sequence, the “interaction data at Target Concentration 1000” value ([1]; first column) was 7 and the “interaction data at Target Concentration 1000” value ([1]; second column) was 32.
In the case of DPAQLNCLSAAMYCALY, the “Phage library screen NGS readout, Target Concentration 10” value [2] is reported as 2, the “Phage library screen NGS readout, Target Concentration 30” value [2] is reported as 19 and the “Phage library screen NGS readout, Target Concentration 100” value [2] is reported as 49. For the same sequence, the “Phage library screen NGS readout, Target Concentration 300” value [2] was 95, the “Phage library screen NGS readout, Target Concentration 1000” value [2, 3] was 104 and the “Phage library screen NGS readout, Target Concentration 1000” value [2, 4] was 111. The “Phage library screen NGS readout, BLANK” value ([2]; column 1 of 5) was 0, the “Phage library screen NGS readout, BLANK” value ([2]; column 2 of 5) was 0 and the “Phage library screen NGS readout, BLANK” value ([2]; column 3 of 5) was 1. The “Phage library screen NGS readout, BLANK” value ([2]; column 4 of 5) was 0 and the “Phage library screen NGS readout, BLANK” value ([2]; column 5 of 5) was 0.
DPAQMFCYSAAVYCAAF was tested, and the “Phage library screen NGS readout, Target Concentration 10” value [2] was 0, the “Phage library screen NGS readout, Target Concentration 30” value [2] was 0 and the “Phage library screen NGS readout, Target Concentration 100” value [2] was 4. The “Phage library screen NGS readout, Target Concentration 300” value [2] was 5, the “Phage library screen NGS readout, Target Concentration 1000” value [2, 3] was 8 and the “Phage library screen NGS readout, Target Concentration 1000” value [2, 4] was 4. For the same sequence, the “Phage library screen NGS readout, BLANK” value ([2]; column 1 of 5) was 0, the “Phage library screen NGS readout, BLANK” value ([2]; column 2 of 5) was 0 and the “Phage library screen NGS readout, BLANK” value ([2]; column 3 of 5) was 0. For the same sequence, the “Phage library screen NGS readout, BLANK” value ([2]; column 4 of 5) was 0 and the “Phage library screen NGS readout, BLANK” value ([2]; column 5 of 5) was 0.
In the case of DPAQMSCFSAAVYCRLF, the “Phage library screen NGS readout, Target Concentration 10” value [2] is reported as 0, the “Phage library screen NGS readout, Target Concentration 30” value [2] is reported as 0 and the “Phage library screen NGS readout, Target Concentration 100” value [2] is reported as 11. The “Phage library screen NGS readout, Target Concentration 300” value [2] was 10, the “Phage library screen NGS readout, Target Concentration 1000” value [2, 3] was 10 and the “Phage library screen NGS readout, Target Concentration 1000” value [2, 4] was 17. For the same sequence, the “Phage library screen NGS readout, BLANK” value ([2]; column 1 of 5) was 0, the “Phage library screen NGS readout, BLANK” value ([2]; column 2 of 5) was 0 and the “Phage library screen NGS readout, BLANK” value ([2]; column 3 of 5) was 0. The “Phage library screen NGS readout, BLANK” value ([2]; column 4 of 5) was 0 and the “Phage library screen NGS readout, BLANK” value ([2]; column 5 of 5) was 0.
DPAQNHCDSAAVFCYIL was tested, and the “phage screen NGS read-out at Target Concentration 10” value [2] was 0, the “phage screen NGS read-out at Target Concentration 30” value [2] was 0 and the “phage screen NGS read-out at Target Concentration 100” value [2] was 1. For the same sequence, the “phage screen NGS read-out at Target Concentration 300” value [2] was 8.
With DPAQQHCSAAAAWCVVL the “phage screen NGS read-out at Target Concentration 10” value [2] was 0, the “phage screen NGS read-out at Target Concentration 30” value [2] was 0 and the “phage screen NGS read-out at Target Concentration 100” value [2] was 1. For the same sequence, the “phage screen NGS read-out at Target Concentration 300” value [2] was 10.
In the case of DPAQQICLSAAVFCSIF, the “phage screen NGS read-out at Target Concentration 10” value [2] is reported as 0, the “phage screen NGS read-out at Target Concentration 30” value [2] is reported as 0 and the “phage screen NGS read-out at Target Concentration 100” value [2] is reported as 4. The “phage screen NGS read-out at Target Concentration 300” value [2] was 10.
With DPAQRDCFSAAVYCSFL the “phage screen NGS read-out at Target Concentration 30” value [2] was 210, the “phage screen NGS read-out at Target Concentration 100” value [2] was 40 and the “phage screen NGS read-out at Target Concentration 300” value [2] was 88.
In the case of DPAQRQCLSAAVFCATL, the “Phage library screen NGS readout, Target Concentration 10” value [2] is reported as 3, the “Phage library screen NGS readout, Target Concentration 30” value [2] is reported as 24 and the “Phage library screen NGS readout, Target Concentration 100” value [2] is reported as 137. For the same sequence, the “Phage library screen NGS readout, Target Concentration 1000” value [2, 3] was 292, the “Phage library screen NGS readout, Target Concentration 1000” value [2, 4] was 319 and the “Phage library screen NGS readout, BLANK” value ([2]; column 1 of 5) was 0. For the same sequence, the “Phage library screen NGS readout, BLANK” value ([2]; column 2 of 5) was 1, the “Phage library screen NGS readout, BLANK” value ([2]; column 3 of 5) was 1 and the “Phage library screen NGS readout, BLANK” value ([2]; column 4 of 5) was 0. The “Phage library screen NGS readout, BLANK” value ([2]; column 5 of 5) was 1.
With DPAQRQCLSAAVWCATF the “Phage library screen NGS readout, Target Concentration 10” value [2] was 10, the “Phage library screen NGS readout, Target Concentration 30” value [2] was 57 and the “Phage library screen NGS readout, Target Concentration 100” value [2] was 121. The “Phage library screen NGS readout, Target Concentration 300” value [2] was 199, the “Phage library screen NGS readout, Target Concentration 1000” value [2, 3] was 201 and the “Phage library screen NGS readout, Target Concentration 1000” value [2, 4] was 203. For the same sequence, the “Phage library screen NGS readout, BLANK” value ([2]; column 1 of 5) was 1, the “Phage library screen NGS readout, BLANK” value ([2]; column 2 of 5) was 0 and the “Phage library screen NGS readout, BLANK” value ([2]; column 3 of 5) was 2. The “Phage library screen NGS readout, BLANK” value ([2]; column 4 of 5) was 1 and the “Phage library screen NGS readout, BLANK” value ([2]; column 5 of 5) was 0.
With DPAQVHCRSAAAWCILM the “phage screen NGS read-out at Target Concentration 10” value [2] was 0, the “phage screen NGS read-out at Target Concentration 30” value [2] was 0 and the “phage screen NGS read-out at Target Concentration 100” value [2] was 0. The “phage screen NGS read-out at Target Concentration 300” value [2] was 2.
In the case of DPAQWVCHMAAMNCLYQ, the “phage screen NGS read-out at Target Concentration 10” value [2] is reported as 0, the “phage screen NGS read-out at Target Concentration 30” value [2] is reported as 1 and the “phage screen NGS read-out at Target Concentration 100” value [2] is reported as 0. The “phage screen NGS read-out at Target Concentration 300” value [2] was 4.
